Measured values published in US20040018971A1 (published 2004).

Assays:
HLA-A*0201 [1] = target: T1, HLA-A*0201 (human); assay: competition with 125I-labelled standard peptide 941.01 for purified HLA, gel filtration
T1 construct: also called HLA-A2.1

HLA-B*0702 = HLA-B*0702 (human); assay: competition with 125I probe peptide, purified HLA
HLA-B*5401 = HLA-B*5401 (human); assay: competition with 125I probe peptide, purified HLA
HLA-B*5301 = HLA-B*5301 (human); assay: competition with 125I probe peptide, purified HLA
HLA-B*3501 = HLA-B*3501 (human); assay: competition with 125I probe peptide, purified HLA
HLA-B*5101 = HLA-B*5101 (human); assay: competition with 125I probe peptide, purified HLA
[2] = target: T2, HLA-A*0301 (purified HLA class I molecule) (human); assay: competition with 125I-labelled probe peptide for purified HLA-A*0301, gel filtration
T2 construct: also called HLA-A3

HLA-A*0201 [3] = target: T3, HLA-A*0201 (human); assay: inhibition of 125I-labelled standard peptide binding to purified HLA, gel filtration; ratio = IC50 of standard / IC50 of test peptide
T3 construct: also called HLA-A2.1

HLA-A*0201 [4] = target: T4, HLA-A*0201 (human); assay: competitive inhibition of 125I-labelled standard peptide binding to purified HLA, gel filtration
T4 construct: also called HLA-A2.1

CVARCPSGV (also called Her2/neu.596 (9-mer)) [HER2/neu peptide, position 596, 9 amino acids]
relative binding ratio (HLA-A*0201 [1]): 0.0004 ratio (IC50 of standard peptide / IC50 of test peptide)

FPSGVKPDI (analog peptide) [Her2/neu.600.F1I9]
IC50 (HLA-B*0702): 6.3 nM
IC50 (HLA-B*5401): 44 nM
IC50 (HLA-B*5301): 930 nM
IC50 (HLA-B*3501): 9000 nM
IC50 (HLA-B*5101): 204 nM

DIQEVQGYV (also called Her2/neu.76 (9-mer)) [HER2/neu peptide, position 76, 9 amino acids]
relative binding ratio (HLA-A*0201 [1]): 0.0001 ratio (IC50 of standard peptide / IC50 of test peptide)

ASCVTACPY [HER2/neu peptide, position 293, 9 amino acids (ASCVTACPY)]
relative binding ratio [2]: 0.0008 ratio (IC50 of standard peptide / IC50 of test peptide)

TAPLQPEQL [HER2/neu peptide, position 389, 9 amino acids]
relative binding ratio (HLA-A*0201 [3]): 0.0002 ratio to standard peptide

AMPNQAQMR (also called Her2/neu.705 9-mer) [HER2/neu peptide, position 705, 9 amino acids (AMPNQAQMR)]
relative binding ratio [2]: 0.0004 ratio (IC50 of standard peptide / IC50 of test peptide)

FPMCKGSRCI (analog peptide) [Her2/neu.196.F1]
IC50 (HLA-B*0702): 183 nM
IC50 (HLA-B*5401): 303 nM
IC50 (HLA-B*5301): 6640 nM
IC50 (HLA-B*5101): 500 nM

SLRELGSGL [HER2/neu peptide, position 457, 9 amino acids]
relative binding ratio (HLA-A*0201 [3]): 0.0002 ratio to standard peptide

FPGGLRELQI (analog peptide) [Her2/neu.133.F1I10]
IC50 (HLA-B*0702): 306 nM
IC50 (HLA-B*5401): 476 nM
IC50 (HLA-B*5301): 310 nM
IC50 (HLA-B*5101): 1770 nM

DLAARNVLV (also called Her2/neu.845 (9-mer)) [HER2/neu peptide, position 845, 9 amino acids]
relative binding ratio (HLA-A*0201 [1]): 0.0002 ratio (IC50 of standard peptide / IC50 of test peptide)

ALESILRRR (also called Her2/neu.890 9-mer) [HER2/neu peptide, position 890, 9 amino acids (ALESILRRR)]
relative binding ratio [2]: 0.0013 ratio (IC50 of standard peptide / IC50 of test peptide)

B1: HER2/neu peptide, position 413, 10 amino acids (peptide)
peptide: SAWPDSLPDL
notes: T0022 prints L there and the analog Her2/neu.415.I8 implies a native L, so L is used
relative binding ratio (HLA-A*0201 [3]): 0.0002 ratio to standard peptide

FPLNNTTPI (analog peptide) [Her2/neu.121.F1I9]
IC50 (HLA-B*0702): 1.6 nM
IC50 (HLA-B*5401): 1.6 nM
IC50 (HLA-B*5301): 52 nM
IC50 (HLA-B*3501): 200 nM
IC50 (HLA-B*5101): 13 nM

FPLNNTTPV (analog peptide) [Her2/neu.121.F1]
IC50 (HLA-B*0702): 0.2 nM
IC50 (HLA-B*5401): 1.1 nM
IC50 (HLA-B*5301): 1070 nM
IC50 (HLA-B*3501): 40 nM
IC50 (HLA-B*5101): 7.1 nM

FPDLSYMPI (analog peptide) [Her2/neu.605.F1]
IC50 (HLA-B*0702): 22 nM
IC50 (HLA-B*5401): 31 nM
IC50 (HLA-B*5301): 72 nM
IC50 (HLA-B*3501): 167 nM
IC50 (HLA-B*5101): 10 nM

AFSPAFDNLY (also called Her2/neu.1212 10-mer) [HER2/neu peptide, position 1212, 10 amino acids (AFSPAFDNLY)]
relative binding ratio [2]: 0.0003 ratio (IC50 of standard peptide / IC50 of test peptide)

RLRIVRGTQL [HER2/neu peptide, position 98, 10 amino acids]
relative binding ratio (HLA-A*0201 [3]): 0.0001 ratio to standard peptide

CVTACPYNYL (also called Her2/neu.295 (10-mer)) [HER2/neu peptide, position 295, 10 amino acids]
relative binding ratio (HLA-A*0201 [1]): 0.0001 ratio (IC50 of standard peptide / IC50 of test peptide)

PAEQRASPL (Synthetic peptide) [HER2/neu A02 supermotif peptide, position 643, 9 amino acids]
relative binding ratio (IC50 of standard peptide / IC50 of test peptide) (HLA-A*0201 [4]): 0.0001 ratio

FPCARVCYGL (analog peptide) [Her2/neu.336.F1]
IC50 (HLA-B*0702): 190 nM
IC50 (HLA-B*5401): 36 nM
IC50 (HLA-B*5301): 1690 nM
IC50 (HLA-B*3501): 450 nM
IC50 (HLA-B*5101): 1000 nM

AMPNQAQMRI (also called Her2/neu.705 (10-mer)) [HER2/neu peptide, position 705, 10 amino acids]
relative binding ratio (HLA-A*0201 [1]): 0.0007 ratio (IC50 of standard peptide / IC50 of test peptide)

ALVTYNTDT (also called Her2/neu.270 (9-mer)) [HER2/neu peptide, position 270, 9 amino acids]
relative binding ratio (HLA-A*0201 [1]): 0.0001 ratio (IC50 of standard peptide / IC50 of test peptide)

PAARPAGATL (Synthetic peptide) [HER2/neu A02 supermotif peptide, position 1158, 10 amino acids]
relative binding ratio (IC50 of standard peptide / IC50 of test peptide) (HLA-A*0201 [4]): 0.0001 ratio

ASPLDSTFY [HER2/neu peptide, position 997, 9 amino acids (ASPLDSTFY)]
relative binding ratio [2]: 0.0002 ratio (IC50 of standard peptide / IC50 of test peptide)

AALCRWGLLL (also called Her2/neu.4 (10-mer)) [HER2/neu peptide, position 4, 10 amino acids]
relative binding ratio (HLA-A*0201 [1]): 0.001 ratio (IC50 of standard peptide / IC50 of test peptide)

STDVGSCTLV [HER2/neu peptide, position 305, 10 amino acids]
relative binding ratio (HLA-A*0201 [3]): 0.0001 ratio to standard peptide

RLPQPPICT [HER2/neu peptide, position 940, 9 amino acids]
relative binding ratio (HLA-A*0201 [3]): 0.0002 ratio to standard peptide

ALLPPGAAST (also called Her2/neu.14 (10-mer)) [HER2/neu peptide, position 14, 10 amino acids]
relative binding ratio (HLA-A*0201 [1]): 0.0001 ratio (IC50 of standard peptide / IC50 of test peptide)

SAVVGILLVV [HER2/neu peptide, position 656, 10 amino acids]
relative binding ratio (HLA-A*0201 [3]): 0.0009 ratio to standard peptide
